Experimental data as given in paper PMC8886820.
Read-outs that look alike come from different tables or passages of the source. Values belong to the substance of their own block, whether it stands above or below them.

What was measured:
[1] = target: phospho-10xMEED (MBP-Spc105(10xMEED)-TST phosphorylated by activated Sli15(INBOX)-Ipl1) (D. melanogaster); assay: pull-down
[2] = target: MBP-Spc105(10xMEED)-TST (D. melanogaster); assay: pull-down
[3] = target: Taxol-stabilized microtubules (UniProt P02550); assay: TIRF microscopy of EGFP-tagged protein on surface-held microtubules
[4] = target: Taxol-stabilized microtubules (UniProt P02550); assay: as above; remark: listed apart in the source

Sequence of Taxol-stabilized microtubules (P02550 whole entry, chain 1 of 2): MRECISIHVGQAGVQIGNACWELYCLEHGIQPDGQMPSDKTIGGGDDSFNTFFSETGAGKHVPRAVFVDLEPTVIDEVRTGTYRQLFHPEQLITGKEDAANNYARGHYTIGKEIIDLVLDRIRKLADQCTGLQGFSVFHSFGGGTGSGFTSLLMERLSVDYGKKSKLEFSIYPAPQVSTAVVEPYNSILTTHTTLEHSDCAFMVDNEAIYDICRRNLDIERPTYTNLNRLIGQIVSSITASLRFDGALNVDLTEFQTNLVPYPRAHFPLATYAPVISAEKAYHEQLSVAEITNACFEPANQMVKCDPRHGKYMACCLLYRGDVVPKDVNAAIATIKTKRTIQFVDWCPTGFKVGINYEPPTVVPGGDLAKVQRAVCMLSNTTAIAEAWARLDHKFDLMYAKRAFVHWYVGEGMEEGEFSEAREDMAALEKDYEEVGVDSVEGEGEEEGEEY
Sequence of Taxol-stabilized microtubules (P02554 whole entry, chain 2 of 2, further chain): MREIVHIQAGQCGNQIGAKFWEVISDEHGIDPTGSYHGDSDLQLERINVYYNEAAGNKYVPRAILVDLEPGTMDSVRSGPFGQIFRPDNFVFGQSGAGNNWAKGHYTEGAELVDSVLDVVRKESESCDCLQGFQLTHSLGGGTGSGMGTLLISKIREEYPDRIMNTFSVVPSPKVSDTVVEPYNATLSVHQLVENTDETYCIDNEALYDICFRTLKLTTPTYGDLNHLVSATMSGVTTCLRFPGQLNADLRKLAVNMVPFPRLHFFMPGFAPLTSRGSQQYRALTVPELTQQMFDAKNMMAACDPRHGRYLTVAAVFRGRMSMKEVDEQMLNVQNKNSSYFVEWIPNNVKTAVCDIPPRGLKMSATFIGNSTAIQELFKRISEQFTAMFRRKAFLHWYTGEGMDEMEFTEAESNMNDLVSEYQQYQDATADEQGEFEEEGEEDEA

fold Bub3 bound against the unphosphorylated MBP-TST control [1]: 30 fold
fold Bub3 bound against the MBP-TST control [2]: 2 fold
Substance: Bub3-EGFP (natural protein)

percent of the MT binding of Spc105-B(1-400) [3]: < 50%
Substance: Spc105-A(1-400)-EGFP (domain or fragment)

percent of the MT binding of Spc105-B(1-400) in 150 mM KCl [3]: 14.6%
percent reduction of MT binding against Spc105-B(1-400) without 1,6-HD [3]: 40%
percent of the MT binding of Spc105-B(1-400) in 150 mM KCl [4]: 12.5%
Substance: Spc105-B(1-400)-EGFP (domain or fragment)

percent of the MT binding of unphosphorylated Spc105-B(1-400) in 150 mM KCl [3]: 22.1%
Substance: Spc105-B(1-400)-EGFP phosphorylated with Sli15(INBOX)-Ipl1 (domain or fragment)
